US20190071490A1, “Preventing Post-Ictal Headaches” (Beth Israel Deaconess Medical Center, Inc., priority 2017, published 2019)
Residue numbers refer to the chain shown, from its start. In names and notes the source's numbering stands.

B1: M77: G1 variant; L1 R28N T30S; L2 G50A L56T; H2 E54K A57D; HC-FW3 L99T A100V (antibody, V domains shown)
VH: EVQLVESGGGLVQPGGSLRLSCAASGFTFSNYWISWVRQAPGKGLEWVAEIRSKSDDSATHYAEAVKGRFTISRDNAKNSLYLQMNSLRAEDTAVYYCTVYFDYGLAIQNYWGQGTLVTVSS
VL: EIVLTQSPATLSLSPGERATLSCKASKNVSTYVSWYQQKPGQAPRLLIYAASNRYTGIPARFSGSGSGTDFTLTISSLEPEDFAVYYCSQSYNYPYTFGQGTKLEIK
B2: M78: G1 variant; L1 R28N T30S; L2 G50A L56T; H2 E54K A57N S58T; HC-FW3 L99T A100V (antibody, V domains shown)
VH: B1 VH with D57N, S58T
VL: B1 VL
B3: M79: G1 variant; L1 R28N T30S; L2 G50A L56T; H2 E54K A57P; HC-FW3 L99T A100V (antibody, V domains shown)
VH: B1 VH with D57P
VL: B1 VL
B4: M80: G1 variant; L1 R28N T30S; L2 L561; H2 E54K A57N; S58V (printed in L1 column); HC-FW3 L99T A100V (antibody, V domains shown)
VH: B1 VH with D57N, S58V
VL: B1 VL with A50G, T56I
B5: M81: G1 variant; L1 R28N T30S; L2 L56S; H2 E54K A57N S58E; HC-FW3 L99T A100V (antibody, V domains shown)
VH: B1 VH with D57N, S58E
VL: B1 VL with A50G, T56S
B6: M82: G1 variant; L1 R28N T30V; L2 A51H L56T; H2 A57N; HC-FW3 L99T A100V (antibody, V domains shown)
VH: B1 VH with K54E, D57N
VL: B1 VL with S30V, A50G, A51H
B7: M83: G1 variant; L1 R28N T30V; L2 A51H L56T; H2 E54K A57N S58M; H61F (printed in L1 column); HC-FW3 L99T A100V (antibody, V domains shown)
VH: B1 VH with D57N, S58M, H61F
VL: B1 VL with S30V, A50G, A51H
B8: M84: G1 variant; L1 R28N T30V; L2 A51H L56T; H2 E54N A57N; HC-FW3 L99T A100V (antibody, V domains shown)
VH: B1 VH with K54N, D57N
VL: B1 VL with S30V, A50G, A51H
B9: M20: G1 variant; L1 R28W; HC-FW3 L99R A100L (antibody, V domains shown)
VH: B1 VH with K54E, D57A, T99R, V100L
VL: B1 VL with N28W, S30T, A50G, T56L
B10: M21: G1 variant; L1 R28W; HC-FW3 L99S (antibody, V domains shown)
VH: B1 VH with K54E, D57A, T99S, V100A
VL: B1 VL with N28W, S30T, A50G, T56L
B11: M22: G1 variant; L1 R28W; HC-FW3 L99T (antibody, V domains shown)
VH: B1 VH with K54E, D57A, V100A
VL: B1 VL with N28W, S30T, A50G, T56L
B12: M23: G1 variant; L1 R28G; HC-FW3 L99T A100V (antibody, V domains shown)
VH: B1 VH with K54E, D57A
VL: B1 VL with N28G, S30T, A50G, T56L
B13: M24: G1 variant; L1 R28L; HC-FW3 L99T A100V (antibody, V domains shown)
VH: B1 VH with K54E, D57A
VL: B1 VL with N28L, S30T, A50G, T56L
B14: M26: G1 variant; L1 R28N; H2 A57G; HC-FW3 L99T A100V (antibody, V domains shown)
VH: B1 VH with K54E, D57G
VL: B1 VL with S30T, A50G, T56L
B15: M27: G1 variant; L1 R28N T30A; HC-FW3 L99T A100V (antibody, V domains shown)
VH: B1 VH with K54E, D57A
VL: B1 VL with S30A, A50G, T56L
B16: M28: G1 variant; L1 R28N T30D; H2 E54R A57N; HC-FW3 L99T A100V (antibody, V domains shown)
VH: B1 VH with K54R, D57N
VL: B1 VL with S30D, A50G, T56L
B17: M29: G1 variant; L1 R28N T30G; HC-FW3 L99T A100V (antibody, V domains shown)
VH: B1 VH with K54E, D57A
VL: B1 VL with S30G, A50G, T56L
B18: M30: G1 variant; L1 R28N T30G; H2 E54K A57E; HC-FW3 L99T A100V (antibody, V domains shown)
VH: B1 VH with D57E
VL: B1 VL with S30G, A50G, T56L
B19: M31: G1 variant; L1 R28N T30G; H2 E54K A57G; HC-FW3 L99T A100V (antibody, V domains shown)
VH: B1 VH with D57G
VL: B1 VL with S30G, A50G, T56L
B20: M32: G1 variant; L1 R28N T30G; H2 E54K A57H; HC-FW3 L99T A100V (antibody, V domains shown)
VH: B1 VH with D57H
VL: B1 VL with S30G, A50G, T56L
B21: M33: G1 variant; L1 R28N T30G; H2 E54K A57N S58G; HC-FW3 L99T A100V (antibody, V domains shown)
VH: B1 VH with D57N, S58G
VL: B1 VL with S30G, A50G, T56L

What was measured:
[1] = molecular target: T1, human α-CGRP (Homo sapiens, UniProt P06881); test: Biacore SPR affinity of Fab fragments to N-biotinylated human α-CGRP on SA chip; type: binding; details: 37° C., screening mode except underlined values
T1 construct: 1-37 (WT); purchased GenScript Corporation or Global Peptide Services
T1 sequence (P06881 83-119 limits assumed): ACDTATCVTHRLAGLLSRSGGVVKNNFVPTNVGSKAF
Description: (§1) Affinity determination of the Fabs. Affinities of the anti-CGRP monoclonal antibodies were determined at either 25° C. or 37° C. using the BIACORE3000™ surface plasmon resonance (SPR) system (Biacore, INC, Piscataway N.J.) with the manufacture's own running buffer, HBS-EP (10 mM HEPES pH 7.4, 150 mM NaCl, 3 mM EDTA, 0.005% v/v polysorbate P20). Affinity was determined by capturing N-terminally biotinylated CGRP peptides (custom ordered from GenScript Corporation, New Jersey or Global Peptide Services, Colorado) via pre-immobilized streptavidin on SA chip and measuring binding kinetics of antibody Fab titrated across the CGRP surface. Biotinylated CGRP was diluted into HBS-EP and injected over the chip at a concentration of less than 0.001 mg/ml. Using variable flow time across the individual chip channels, two ranges of antigen density were achieved: <50 response units (RU) for detailed kinetic studies and about 800 RU for concentration studies and screening. […] After each binding cycle, surfaces were regenerated with 25 mM NaOH in 25% v/v ethanol, which was tolerated over hundreds of cycles. Kinetic association rate (kon) and dissociation rate (koff) were obtained simultaneously by fitting the data to a 1:1 Langmuir binding model (Karlsson et al. (1994). Methods Enzymology 6. 99-110) using the BIAevaluation program. Global equilibrium dissociation constants (KD) or “affinities” were calculated from the ratio KD=koff/kon.
(§2) Biacore assay for affinity determination. […] All Biacore assays were conducted in HBS-EP running buffer (10 mM HEPES pH 7.4, 150 mM NaCl, 3 mM EDTA, 0.005% v/v polysorbate P20). CGRP surfaces were prepared by diluting the N-biotinylated CGRP to a concentration of less than 0.001 mg/mL into HBS-EP buffer and injecting it across the SA sensor chip using variable contact times. Low capacity surfaces, corresponding to capture levels <50 response units (RU) were used for high-resolution kinetic studies, whereas high capacity surfaces (about 800 RU of captured CGRP) were used for concentration studies, screening, and solution affinity determinations. […] Samples were typically injected for 1 minute at 100 μL/min and dissociation times of at least 10 minutes were allowed. After each binding cycle, surfaces were regenerated with 25 mM NaOH in 25% v/v ethanol, which was tolerated over hundreds of cycles. An entire titration series (typically generated in duplicate) was fit globally to a 1:1 Langmuir binding model using the BIAevaluation program. This returned a unique pair of association and dissociation kinetic rate constants (respectively, kon and koff) for each binding interaction, whose ratio gave the equilibrium dissociation constant (KD=koff/kon).
(§3) High-resolution analysis of binding interactions with extremely slow off rates. […] The protocol described above was used with the following modifications. The association rate constant (kon) was determined by injecting a 2-fold titration series (in duplicate) spanning 550 nM-1 nM for 30 seconds at 100 μL/min and allowing only a 30 second dissociation phase. The dissociation rate constant (koff) was determined by injecting three concentrations (high, medium, and low) of the same titration series in duplicate for 30 seconds and allowing a 2-hour dissociation phase. The affinity (KD) of each interaction was obtained by combining the kon and koff values obtained in both types of experiments, as shown in Table 4.

[2] = molecular target: T2, rat α-CGRP (Rattus norvegicus, UniProt P01256); test: Biacore SPR affinity of Fab fragments to N-biotinylated rat α-CGRP on SA chip; type: binding; details: 37° C., screening mode except underlined values
T2 construct: rat α (1-37); purchased GenScript Corporation or Global Peptide Services
T2 sequence (P01256 83-119 limits assumed): T1 sequence (P06881 83-119 limits assumed) with A1S, D3N, N25D, K35E
Description: as §1, §2, §3

α-human koff [1] | α-rat koff [2] | α-rat koff (1/s) [2] | Molecule
0.000477 s⁻¹ | 0.0143 s⁻¹ | – | B1
0.00131 s⁻¹ | 0.167 s⁻¹ | – | B2
0.00129 s⁻¹ | 0.19 s⁻¹ | – | B3
0.00209 s⁻¹ | 0.0993 s⁻¹ | – | B4
0.00049 s⁻¹ | 0.00429 s⁻¹ | – | B5
0.000877 s⁻¹ | 0.00699 s⁻¹ | – | B6
0.000933 s⁻¹ | – | No binding | B7
0.00108 s⁻¹ | 0.0176 s⁻¹ | – | B8
0.000136 s⁻¹ | 0.00144 s⁻¹ | – | B9
0.000142 s⁻¹ | 0.000695 s⁻¹ | – | B10
0.000116 s⁻¹ | 0.0011 s⁻¹ | – | B11
0.00013 s⁻¹ | 0.000799 s⁻¹ | – | B12
0.000148 s⁻¹ | 0.00104 s⁻¹ | – | B13
0.000148 s⁻¹ | 0.000924 s⁻¹ | – | B14
0.000357 s⁻¹ | 0.00341 s⁻¹ | – | B15
9.96e-05 s⁻¹ | 0.00125 s⁻¹ | – | B16
0.00038 s⁻¹ | 0.00359 s⁻¹ | – | B17
0.00059 s⁻¹ | 0.00638 s⁻¹ | – | B18
0.000347 s⁻¹ | 0.00361 s⁻¹ | – | B19
0.000271 s⁻¹ | 0.00296 s⁻¹ | – | B20
0.00075 s⁻¹ | 0.00922 s⁻¹ | – | B21
